This passage reports Kd results from US20020151682A1 (UCB, published 2002).

For this test, the target named is T1, human tumour necrosis factor alpha (TNFα) (human, UniProt P01375 77-233).
T1 construct: also called human TNF; recombinant human TNFα
Kind of test: affinity; method not named at the sentence (BiaCore with captured hTNF40 and human TNF in flow is described at paragraph 169). The source says:
Following the injection of ligand, buffer was passed over the surface so that the dissociation could be measured.

T1 sequence (P01375 77-233 limits assumed): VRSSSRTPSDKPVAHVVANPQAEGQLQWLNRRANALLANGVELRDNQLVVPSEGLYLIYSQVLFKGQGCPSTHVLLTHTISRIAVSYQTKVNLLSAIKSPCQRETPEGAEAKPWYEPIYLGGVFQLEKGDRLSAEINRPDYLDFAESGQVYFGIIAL

B1: mouse monoclonal antibody hTNF40 (antibody, IgG2a, V domains shown)
VH: QIQLVQSGPELKKPGETVKISCKASGYVFTDYGMNWVKQAPGKAFKWMGWINTYIGEPIYVDDFKGRFAFSLETSASTAFLQINNLKNEDTATYFCARGYRSYAMDYWGQGTSVTVSS
VL: DIVMTQSQKFMSTSVGDRVSVTCKASQNVGTNVAWYQQKPGQSPKALIYSASFLYSGVPYRFTGSGSGTDFTLTISTVQSEDLAEYFCQQYNIYPLTFGAGTKLELKR
notes: The light chain constant region is kappa and the heavy chain constant region is IgG2a (mouse); also called murine hTNF40; the donor antibody
As a reminder, the Kd is the equilibrium constant for the complex coming apart. A high value points to lower affinity. Molecule B1 had a Kd of around 0.085 nM.
